Starred links: 1 amine or outer side, 2 acyl side, 3 side chain; linkers in the order of their positions; H or OH if unused. Positions of bridges follow the written chain, without caps; N, C: chain ends. Non-standard residues stand in square brackets, D forms with d. Residues, ends and D or L forms follow the SMILES beside them. Groups on a side chain read outwards from the residue. Primed or numbered codes have the meaning given here. *: point of attachment. X6 = CSCC[C@H](NC(=O)c1ccc(CNC(=O)CN2CCN(CC(=O)O)CCN(CC(=O)O)CCN(CC(=O)O)CC2)cc1)C(=O)N[C@H](C(=O)N[C@@H](CCCCN*)C(=O)O)C(C)C; Ala(piperidin-4-yl) = O=C([C@H](CC1CCN([*:3])CC1)N[*:1])[*:2]; DOTA = O=C(O)CN1CCN(CC(=O)O)CCN(CC(=O)*)CCN(CC(=O)O)CC1; Phe(4-COOH) = N[C@@H](Cc1ccc(C(=O)O)cc1)C(=O)O; Trp(5-F) = N[C@@H](Cc1c[nH]c2ccc(F)cc12)C(=O)O; X1 = C[C@@H](c1ccccc1)[C@H](N[*:1])C(=O)[*:2]; PEG4′ = 4x 3-(2-aminoethoxy)propanoic acid; 1Nal = N[C@@H](Cc1cccc2ccccc12)C(=O)O; Ala(4-THP) = N[C@@H](CC1CCOCC1)C(=O)O; Val(3-OH) = CC(C)(O)[C@H](N)C(=O)O; 4Pal = N[C@@H](Cc1ccncc1)C(=O)O; aThr = C[C@H](O)[C@H](N)C(=O)O; Chg = N[C@H](C(=O)O)C1CCCCC1; Tle = CC(C)(C)[C@H](N)C(=O)O; hLeu = CC(C)CC[C@H](N)C(=O)O; Sar = CNCC(=O)O
T1: 2Ig B7-H3 (Homo sapiens, UniProt Q5ZPR3)
T1 sequence (Q5ZPR3 29-316 isoform Q5ZPR3-2 limits assumed): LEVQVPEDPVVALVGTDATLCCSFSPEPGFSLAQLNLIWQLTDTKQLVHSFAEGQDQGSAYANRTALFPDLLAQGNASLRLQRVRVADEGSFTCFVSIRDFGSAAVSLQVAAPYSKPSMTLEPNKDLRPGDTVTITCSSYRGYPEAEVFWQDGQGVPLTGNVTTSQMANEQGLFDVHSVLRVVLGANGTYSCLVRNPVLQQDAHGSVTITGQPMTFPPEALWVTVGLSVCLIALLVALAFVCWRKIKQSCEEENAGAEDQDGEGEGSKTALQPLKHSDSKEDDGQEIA

T2: human 4lg B7-H3 (Homo sapiens, UniProt Q5ZPR3)
T2 sequence (Q5ZPR3 29-534): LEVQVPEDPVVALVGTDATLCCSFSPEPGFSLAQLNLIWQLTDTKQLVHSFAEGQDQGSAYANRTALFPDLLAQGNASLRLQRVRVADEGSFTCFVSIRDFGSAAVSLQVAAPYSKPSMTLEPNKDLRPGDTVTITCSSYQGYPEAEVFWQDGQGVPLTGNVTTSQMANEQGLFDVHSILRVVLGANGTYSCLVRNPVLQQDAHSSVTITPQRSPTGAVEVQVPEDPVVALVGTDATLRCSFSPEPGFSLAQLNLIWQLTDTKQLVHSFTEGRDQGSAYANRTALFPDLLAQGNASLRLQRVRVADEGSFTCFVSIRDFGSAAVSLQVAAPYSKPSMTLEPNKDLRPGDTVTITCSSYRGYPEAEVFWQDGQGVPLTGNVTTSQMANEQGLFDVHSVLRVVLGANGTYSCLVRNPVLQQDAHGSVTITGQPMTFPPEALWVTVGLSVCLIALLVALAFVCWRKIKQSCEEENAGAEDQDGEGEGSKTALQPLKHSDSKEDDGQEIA

T3: B7-H3 on Calu-6 cells (human, UniProt Q5ZPR3 29-534)
T3 construct: whole, on cells
T3 sequence (looked up): T2 sequence (Q5ZPR3 29-534)

B1: Cpd 200 (peptide)
peptide: Ac-[hLeu]YCVGK[Ala(4-THP)]DVYC[Trp(5-F)]FT[dK](DOTA)-NH2
modifications: disulfide 3-11
SMILES: CC(=O)N[C@@H](CCC(C)C)C(=O)N[C@@H](Cc1ccc(O)cc1)C(=O)N[C@H]1CSSC[C@@H](C(=O)N[C@@H](Cc2c[nH]c3ccc(F)cc23)C(=O)N[C@@H](Cc2ccccc2)C(=O)N[C@H](C(=O)N[C@H](CCCCNC(=O)CN2CCN(CC(=O)O)CCN(CC(=O)O)CCN(CC(=O)O)CC2)C(N)=O)[C@@H](C)O)NC(=O)[C@H](Cc2ccc(O)cc2)NC(=O)[C@H](C(C)C)NC(=O)[C@H](CC(=O)O)NC(=O)[C@H](CC2CCOCC2)NC(=O)[C@H](CCCCN)NC(=O)CNC(=O)[C@H](C(C)C)NC1=O
B2: Cpd 157 (peptide)
peptide: Ac-[hLeu]YC[Tle]GK[4Pal]DVYCWFT[dK](DOTA)-NH2
modifications: disulfide 3-11
SMILES: CC(=O)N[C@@H](CCC(C)C)C(=O)N[C@@H](Cc1ccc(O)cc1)C(=O)N[C@H]1CSSC[C@@H](C(=O)N[C@@H](Cc2c[nH]c3ccccc23)C(=O)N[C@@H](Cc2ccccc2)C(=O)N[C@H](C(=O)N[C@H](CCCCNC(=O)CN2CCN(CC(=O)O)CCN(CC(=O)O)CCN(CC(=O)O)CC2)C(N)=O)[C@@H](C)O)NC(=O)[C@H](Cc2ccc(O)cc2)NC(=O)[C@H](C(C)C)NC(=O)[C@H](CC(=O)O)NC(=O)[C@H](Cc2ccncc2)NC(=O)[C@H](CCCCN)NC(=O)CNC(=O)[C@H](C(C)(C)C)NC1=O
B3: Cpd 288 (peptide)
peptide: Ac-[hLeu]YCVGK[Ala(4-THP)]DVYC[Trp(5-F)]FP[dK](DOTA)-OH
modifications: disulfide 3-11
SMILES: CC(=O)N[C@@H](CCC(C)C)C(=O)N[C@@H](Cc1ccc(O)cc1)C(=O)N[C@H]1CSSC[C@@H](C(=O)N[C@@H](Cc2c[nH]c3ccc(F)cc23)C(=O)N[C@@H](Cc2ccccc2)C(=O)N2CCC[C@H]2C(=O)N[C@H](CCCCNC(=O)CN2CCN(CC(=O)O)CCN(CC(=O)O)CCN(CC(=O)O)CC2)C(=O)O)NC(=O)[C@H](Cc2ccc(O)cc2)NC(=O)[C@H](C(C)C)NC(=O)[C@H](CC(=O)O)NC(=O)[C@H](CC2CCOCC2)NC(=O)[C@H](CCCCN)NC(=O)CNC(=O)[C@H](C(C)C)NC1=O
B4: Cpd 190 (peptide)
peptide: Ac-[hLeu]YCVGK[4Pal]D[Chg]YC[Trp(5-F)]FT[dK](DOTA)-NH2
modifications: disulfide 3-11
SMILES: CC(=O)N[C@@H](CCC(C)C)C(=O)N[C@@H](Cc1ccc(O)cc1)C(=O)N[C@H]1CSSC[C@@H](C(=O)N[C@@H](Cc2c[nH]c3ccc(F)cc23)C(=O)N[C@@H](Cc2ccccc2)C(=O)N[C@H](C(=O)N[C@H](CCCCNC(=O)CN2CCN(CC(=O)O)CCN(CC(=O)O)CCN(CC(=O)O)CC2)C(N)=O)[C@@H](C)O)NC(=O)[C@H](Cc2ccc(O)cc2)NC(=O)[C@H](C2CCCCC2)NC(=O)[C@H](CC(=O)O)NC(=O)[C@H](Cc2ccncc2)NC(=O)[C@H](CCCCN)NC(=O)CNC(=O)[C@H](C(C)C)NC1=O
B5: Cpd 74 (peptide)
peptide: Ac-[hLeu]YCV[Sar]KYDVYCWFT[dK](DOTA)-NH2
modifications: disulfide 3-11
SMILES: CC(=O)N[C@@H](CCC(C)C)C(=O)N[C@@H](Cc1ccc(O)cc1)C(=O)N[C@H]1CSSC[C@@H](C(=O)N[C@@H](Cc2c[nH]c3ccccc23)C(=O)N[C@@H](Cc2ccccc2)C(=O)N[C@H](C(=O)N[C@H](CCCCNC(=O)CN2CCN(CC(=O)O)CCN(CC(=O)O)CCN(CC(=O)O)CC2)C(N)=O)[C@@H](C)O)NC(=O)[C@H](Cc2ccc(O)cc2)NC(=O)[C@H](C(C)C)NC(=O)[C@H](CC(=O)O)NC(=O)[C@H](Cc2ccc(O)cc2)NC(=O)[C@H](CCCCN)NC(=O)CN(C)C(=O)[C@H](C(C)C)NC1=O
B6: Cpd 179 (peptide)
peptide: Ac-[hLeu]YC[Tle]GKYDVYC[1Nal]FT[dK](DOTA)-NH2
modifications: disulfide 3-11
SMILES: CC(=O)N[C@@H](CCC(C)C)C(=O)N[C@@H](Cc1ccc(O)cc1)C(=O)N[C@H]1CSSC[C@@H](C(=O)N[C@@H](Cc2cccc3ccccc23)C(=O)N[C@@H](Cc2ccccc2)C(=O)N[C@H](C(=O)N[C@H](CCCCNC(=O)CN2CCN(CC(=O)O)CCN(CC(=O)O)CCN(CC(=O)O)CC2)C(N)=O)[C@@H](C)O)NC(=O)[C@H](Cc2ccc(O)cc2)NC(=O)[C@H](C(C)C)NC(=O)[C@H](CC(=O)O)NC(=O)[C@H](Cc2ccc(O)cc2)NC(=O)[C@H](CCCCN)NC(=O)CNC(=O)[C@H](C(C)(C)C)NC1=O
B7: Cpd 286 (peptide)
peptide: Ac-[hLeu]YCVG[Ala(piperidin-4-yl)][Phe(4-COOH)]DVYC[Trp(5-F)]FP[dK](DOTA)-NH2
modifications: disulfide 3-11
SMILES: CC(=O)N[C@@H](CCC(C)C)C(=O)N[C@@H](Cc1ccc(O)cc1)C(=O)N[C@H]1CSSC[C@@H](C(=O)N[C@@H](Cc2c[nH]c3ccc(F)cc23)C(=O)N[C@@H](Cc2ccccc2)C(=O)N2CCC[C@H]2C(=O)N[C@H](CCCCNC(=O)CN2CCN(CC(=O)O)CCN(CC(=O)O)CCN(CC(=O)O)CC2)C(N)=O)NC(=O)[C@H](Cc2ccc(O)cc2)NC(=O)[C@H](C(C)C)NC(=O)[C@H](CC(=O)O)NC(=O)[C@H](Cc2ccc(C(=O)O)cc2)NC(=O)[C@H](CC2CCNCC2)NC(=O)CNC(=O)[C@H](C(C)C)NC1=O

Key:
2Ig B7-H3 = target: T1, 2Ig B7-H3; assay: SPR binding affinity to 2Ig B7-H3; conditions: 37° C.; read-out: 2Ig B7-H3_KD (nM) at 37° C.
human 4lg B7-H3 = target: T2, human 4lg B7-H3; assay: Affinity determination by surface plasmon resonance (SPR) to 4Ig B7-H3; conditions: SPR KD—37° C., 4Ig B7-H3; 37° C. flow cell temperature
B7-H3 on Calu-6 cells [1] = target: T3, B7-H3 on Calu-6 cells; assay: 177Lu-labelled peptide on Calu-6 cells, % cell associated fraction; B = 25<%<=50
B7-H3 on Calu-6 cells [2] = target: T3, B7-H3 on Calu-6 cells; assay: 177Lu-labelled peptide on Calu-6 cells, % cell associated fraction; C = >50%

Molecule	% cell associated fraction (B7-H3 on Calu-6 cells [1])	% cell associated fraction (B7-H3 on Calu-6 cells [2])	further results
CSCC[C@H](NC(=O)c1ccc(CNC(=O)CN2CCN(CC(=O)O)CCN(CC(=O)O)CCN(CC(=O)O)CC2)cc1)C(=O)N[C@H](C(=O)N[C@@H](CCCCNC(=O)CC[C@@H]1NC(=O)CNC(=O)[C@H](C(C)(C)C)NC(=O)[C@@H](NC(=O)[C@H](Cc2ccc(O)cc2)NC(=O)[C@H](CCC(C)C)NC(C)=O)CSSC[C@@H](C(=O)N[C@@H](Cc2c[nH]c3ccc(F)cc23)C(=O)N[C@H](C(=O)N[C@H](C(=O)N[C@H](CO)C(=O)O)C(C)(C)O)[C@@H](C)c2ccccc2)NC(=O)[C@H](Cc2ccc(O)cc2)NC(=O)[C@H](C(C)C)NC(=O)[C@H](CC(=O)O)NC(=O)[C@H](CC2CCOCC2)NC1=O)C(=O)O)C(C)C [compound 519, Ac-hLeu-Y-C-Tbg-G-Glu[&Lys(OH)-Val-Met-AmBz-DOTA]-ThpA-D-V-Y-C-5FW-[(2S, 3S)beta-Me-Phe]-hydroxyVal-dSer-COOH] (Ac-[hLeu]YC[Tle]GE(X6)[Ala(4-THP)]DVYC[Trp(5-F)][X1][Val(3-OH)][dS]-OH; disulfide 3-11)			Kd (2Ig B7-H3): 510 nM; Kd (human 4lg B7-H3): < 1 nM
Ac-[hLeu]YC[Tle]GK[Ala(4-THP)]DVYC[1Nal]FP[dK]([PEG4′-DOTA])-NH2 (disulfide 3-11) [Cpd 259]	25 to 50%		
Ac-[hLeu]YCVGK[Ala(4-THP)]DVYC[Trp(5-F)]FP[dK]([PEG4′-DOTA])-NH2 (disulfide 3-11) [Cpd 282]	25 to 50%		
B1		> 50%	
Ac-[hLeu]YCIGK[Ala(4-THP)]DVYC[Trp(5-F)]F[Val(3-OH)][dK]([PEG4′-DOTA])-OH (disulfide 3-11) [Cpd 308]		> 50%	
B2	25 to 50%		
B3	25 to 50%		
Ac-[hLeu]YCVGKYD[Chg]YC[Trp(5-F)]FT[dK](DOTA)-NH2 (disulfide 3-11) [Cpd 215]		> 50%	
B4		> 50%	
B5	25 to 50%		
Ac-[hLeu]YCVGKYDVYC[Trp(5-F)]FP[dK](DOTA)-NH2 (disulfide 3-11) [Cpd 160]	25 to 50%		
Ac-[hLeu]YCVGKYDVYC[Trp(5-F)]F[aThr][dK](DOTA)-NH2 (disulfide 3-11) [Cpd 162]	25 to 50%		
B6	25 to 50%		
B7		> 50%	

Source: patent US20250296959A1, “B7-H3 TARGETING PEPTIDES AND CONSTRUCTS THEREOF” (Mariana Oncology Inc., priority 2024, published 2025)
